Target: GST-DIAPH3-NT
Test: GST pull-down with immunoblot quantification
Settings: n = 3, parent: est. 1.0, read off a plot

Row | Substance | ratio to parent | ratio to parent (p = 0.0072 vs wt)
1 | MBP-anillin (1–151) wild type (from UniProt Q9NQW6) P43A; L44A | 0.38 | 
2 | MBP-anillin (1–151) wild type (from UniProt Q9NQW6) Q42A | 0.82 | 
3 | MBP-anillin (1–151) wild type (from UniProt Q9NQW6) R41A | 0.59 | 
4 | MBP-anillin (1–151) wild type (from UniProt Q9NQW6) R41A; Q42A; P43A; L44A |  | 0.03
5 | MBP-anillin (1–151) wild type (from UniProt Q9NQW6) K38A; R39A | 0.94 | 
